Results reported in patent US20200339694A1 (CYTOMX THERAPEUTICS, published 2020).

Molecular target: T1, Av1 antibody
T1 construct: also called parental AV1 antibody; anti-IL6R antibody
Experiment: FACS of the peptide displayed on cells

T1 sequence (heavy, as listed by the source, chain 1 of 2): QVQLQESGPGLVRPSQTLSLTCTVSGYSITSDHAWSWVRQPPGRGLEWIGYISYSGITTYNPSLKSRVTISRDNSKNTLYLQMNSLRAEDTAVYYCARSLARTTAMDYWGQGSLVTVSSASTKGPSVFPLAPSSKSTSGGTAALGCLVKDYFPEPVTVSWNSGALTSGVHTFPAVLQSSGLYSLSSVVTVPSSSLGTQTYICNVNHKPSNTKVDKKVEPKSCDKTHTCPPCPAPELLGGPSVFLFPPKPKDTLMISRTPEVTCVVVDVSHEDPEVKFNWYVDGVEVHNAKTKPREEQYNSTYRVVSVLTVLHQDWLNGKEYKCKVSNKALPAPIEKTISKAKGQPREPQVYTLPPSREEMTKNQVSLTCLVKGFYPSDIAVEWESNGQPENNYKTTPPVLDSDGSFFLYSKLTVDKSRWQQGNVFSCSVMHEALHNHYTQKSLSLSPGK
T1 sequence (light, as listed by the source, chain 2 of 2): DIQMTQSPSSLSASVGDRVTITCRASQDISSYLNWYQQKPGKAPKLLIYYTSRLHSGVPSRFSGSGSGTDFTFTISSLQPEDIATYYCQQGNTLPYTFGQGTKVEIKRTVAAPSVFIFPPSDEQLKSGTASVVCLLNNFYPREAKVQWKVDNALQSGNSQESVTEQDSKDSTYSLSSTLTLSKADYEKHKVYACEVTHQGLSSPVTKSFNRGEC

YRSCNWNYVSIFLDC (also called 4278; parental peptide) [Peptide 1 (SEQ ID NO: 33)]
binding result: binds

PGAFDIPFPAHWVPNT (also called 4280; parental peptide) [Peptide 2 (SEQ ID NO: 34)]
binding result: binds
